Laboratory results published in patent publication US20210130838.

How the values were obtained:
Test in all cases: cell_activity
[1] = system: BsCas12a (Butyrivibrio sp.?); conditions: PAM TTTV
CMaCas12a = conditions: PAM TTTV; rice protoplasts
MAD7 = conditions: PAM TTTV
[2] = system: TsCas12a (Thiomicrospira sp.?); conditions: PAM TTTV; stable transgenic rice
BoCas12a = conditions: PAM TTTV; rice protoplasts
Lb5Cas12a = conditions: PAM TTTV; rice protoplasts
Mb2Cas12a = system: Mb2Cas12a
MbCas12a = conditions: PAM TTTV; rice protoplasts
MlCas12a = conditions: PAM TTTV; rice protoplasts

“AAGAAGGGUUAUGGCCAAUGCUU / TCCATTTGTTTGAAGAAGGGTTATGGCCAATGCTTGCCC / GGGCAAGCATTGGCCATAACCCTTCTTCAAACAAATGGA [crRNA OsEPFL9 spacer 23 nt ; OsEPFL9-TTTV target]” was tested. Which activity ([1]; stable transgenic rice) did it give?
The activity was over 80 % editing.

What about the activity (CMaCas12a) of the same sequence?
Its activity is 5.1 % editing.

And the activity (MAD7; stable transgenic rice)?
Its activity is over 80 % editing.

What about the activity [2] of the same sequence?
The activity was over 80 % editing.

“CAGAAAGAGAAGGAGGCACAGAU / CTTTTCCAGAAAGAGAAGGAGGCACAGATCTTGCCGT / ACGGCAAGATCTGTGCCTCCTTCTCTTTCTGGAAAAG [crRNA OsDEP1-TTTV spacer (inferred) ; OsDEP1-TTTV target]” was tested. Which activity (BoCas12a) did it give?
The activity was 7.8 % editing.

What about the activity ([1]; rice protoplasts) of the same sequence?
The activity was 20.1 % editing.

And the activity (CMaCas12a)?
The activity was 2.7 % editing.

What about the activity (Lb5Cas12a) of the same sequence?
Its activity is 28.8 % editing.

And the activity (MAD7; rice protoplasts)?
The activity was 34.1 % editing.

And the activity (Mb2Cas12a; PAM TTTV, rice protoplasts)?
The activity was 19.7 % editing.

And the activity (MbCas12a)?
Its activity is 7.2 % editing.

And the activity (MlCas12a)?
Its activity is 13.9 % editing.

Which activity (Mb2Cas12a; PAM TTV, 22 C) does the source give for “CUCAAGGUGAGCGCCCCGCGGCG / GTTCCTCAAGGTGAGCGCCCCGCGGCGGCGGCGGCTG / CAGCCGCCGCCGCCGCGGGGCGCTCACCTTGAGGAAC [crRNA OsDEP1-TTV spacer (inferred) ; OsDEP1-TTV target]” here?
The activity was 6.4 % indels.

“CUGGGCUCGGCGUCCUCGACGUC / GAGTTGCTGGGCTCGGCGTCCTCGACGTCGTCCTCGCCG / CGGCGAGGACGACGTCGAGGACGCCGAGCCCAGCAACTC [crRNA OsR005-TTV spacer (inferred) ; OsR005-TTV target]” was tested. Which activity (Mb2Cas12a; PAM TTV, 22 C) did it give?
Its activity is 8.3 % indels.
